According to doi:10.1101/2025.01.05.631328 (bioRxiv, 2025):
“And” between values parts separate entries of the source, which are not always exact repeats. Equal entries are not always repeated.

Target: the molecule itself
Assay: cross-linking

B1: MISO-Flag (human C3orf33, long isoform), in U2OS cells (natural protein, UniProt Q6P1S2 1-294, looked up)
chain: MAGQPAATGSPSADKDGMEPNVVARISQWADDHLRLVRNISTGMAIAGIMLLLRSIRLTSKFTSSSDIPVEFIRRNVKLRGRLRRITENGLEIEHIPITLPIIASLRKEPRGALLVKLAGVELAETGKAWLQKELKPSQLLWFQLLGKENSALFCYLLVSKGGYFSVNLNEEILRRGLGKTVLVKGLKYDSKIYWTVHRNLLKAELTALKKGEGIWKEDSEKESYLEKFKDSWREIWKKDSFLKTTGSDFSLKKESYYEKLKRTYEIWKDNMNNCSLILKFRELISRINFRRKG
stoichiometry N: 2 and 3
